The results in this text go back to patent publication US20040023883A1 (published 2004).

For test [1], the target named is T1, IGF-I F49A on phage (G1S-A70V template) (human; bacteriophage M13).
T1 chain: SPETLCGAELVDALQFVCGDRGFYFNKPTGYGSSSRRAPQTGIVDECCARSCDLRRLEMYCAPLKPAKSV
The test can be described thus: competitive phage ELISA; ratio against IGFBP-3. The following applies: remark: other sources report otherwise. On the technique in general: An ELISA detects its analyte on a solid surface through an enzyme-linked reagent.

Test [2] has as its target IGF-I S1A on phage (G1S-A70V template) (human; bacteriophage M13). The test can be described thus: competitive phage ELISA. From the text:
(§1) Phage particles were harvested and resuspended in PBS buffer as described in Lowman, H. B., “Phage Display of Peptide Libraries on Protein Scaffolds,” in Cabilly, S. (ed.), Combinatorial Peptide Library Protocols (Humana Press Inc.: Totowa, N.J., 1998), pp. 249-264. Then phage concentrations were normalized to yield a maximal ELISA signal of 0.2-0.4 for each mutant (Lowman, in Cabilly, S. (ed.), supra). […] After blocking, the plates containing immobilized target were washed with 0.05% TWEEN™/PBS buffer and subsequently incubated with 80 μl/well of the premixed phage-competitor solutions for 1 hour at room temperature. After washing, bound phage was detected with 80 μl/well of a solution containing a primary rabbit anti-phage polyclonal antibody and a secondary goat anti-rabbit monoclonal antibody-horseradish peroxidase conjugate in 0.5% TWEEN 20™/PBS. o-Phenylenediamine (Sigma) and tetramethylbenzidine (Kirkegaard and Perry) were used as chromogenic substrates, resulting in product detection at 492 and 450 nm, respectively. IC₅₀ values were determined by fitting the binding data to a generic saturation curve (Lowman, in Cabilly, S. (ed.), supra).
(§2) At least two different clones of every mutant were tested.

Test [3] addresses T2, IGF-I P2A on phage (G1S-A70V template) (human; bacteriophage M13).
T2 construct: not shown: M13 gene III fragment (residues 249-406), the display carrier, and its junction to IGF-I
The test can be described thus: competitive phage ELISA.
Description: as §1, §2

Test [4] has as its target T1, IGF-I F49A on phage (G1S-A70V template) …. The test can be described thus: competitive phage ELISA. The following applies: remark: other sources report otherwise.

B1: human IGFBP-1 (other, UniProt P08833 26-259, looked up)
chain: APWQCAPCSAEKLALCPPVSASCSEVTRSAGCGCCPMCALPLGAACGVATARCARGLSCRALPGEQQPLHALTRGQGACVQESDASAPHAAEAGSPESPESTEITEEELLDNFHLMAPSEEDHSILWDAISTYDGSKALHVTNIKKWKEPCRIELYRVVESLAKAQETSGEEISKFYLPNCNKNGFYHSRQCETSMDGEAGLCWCVYPWNGKRIPGSPEIRGDPNCQIYFNVQN
notes: Recombinant secreted protein
Take B1: the relative specificity (relative IC50 IGFBP-1/relative IC50 IGFBP-3) in test [1] is above 28. In addition, the values for the IC50 in test [2] and in test [3] were 5.2 nM and 11 nM, respectively. Further, the relative IC50 (IC50 mut/IC50 G1S-A70V) in test [4] was above 100.
